From US9127040B2, “Regulation of sodium channels by PLUNC proteins” (The University of North Carolina at Chapel Hill, priority 2011, dated 2015) come the findings set out here.

This experiment has as its target T1, α, β and γENaC subunits (Rattus norvegicus, UniProt P37089+P37090+P37091).
T1 construct: expressed in transfected cells; host or cells: Xenopus oocytes (cRNA injection; with or without V5-SPLUNC1 and CAP2)
T1 sequence (P37089 1-698): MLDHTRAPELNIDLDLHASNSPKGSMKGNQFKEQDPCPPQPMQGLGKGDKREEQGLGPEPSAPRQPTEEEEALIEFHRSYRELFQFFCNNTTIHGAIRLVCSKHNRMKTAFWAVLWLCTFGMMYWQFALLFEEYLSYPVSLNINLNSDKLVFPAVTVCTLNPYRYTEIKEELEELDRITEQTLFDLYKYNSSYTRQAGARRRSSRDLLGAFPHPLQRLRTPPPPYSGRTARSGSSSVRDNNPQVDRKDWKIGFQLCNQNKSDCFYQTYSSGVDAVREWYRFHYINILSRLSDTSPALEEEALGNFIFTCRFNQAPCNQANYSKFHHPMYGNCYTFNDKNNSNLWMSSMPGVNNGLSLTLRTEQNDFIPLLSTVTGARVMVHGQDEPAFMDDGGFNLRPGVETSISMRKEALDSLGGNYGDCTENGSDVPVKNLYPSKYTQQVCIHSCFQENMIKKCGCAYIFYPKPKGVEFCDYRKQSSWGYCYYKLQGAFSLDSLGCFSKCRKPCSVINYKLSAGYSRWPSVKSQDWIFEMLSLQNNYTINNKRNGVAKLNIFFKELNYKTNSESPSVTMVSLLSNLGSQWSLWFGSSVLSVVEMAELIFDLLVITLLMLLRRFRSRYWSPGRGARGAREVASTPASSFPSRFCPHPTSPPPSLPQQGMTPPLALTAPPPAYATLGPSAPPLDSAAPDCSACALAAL
T1 sequence (P37090 1-638): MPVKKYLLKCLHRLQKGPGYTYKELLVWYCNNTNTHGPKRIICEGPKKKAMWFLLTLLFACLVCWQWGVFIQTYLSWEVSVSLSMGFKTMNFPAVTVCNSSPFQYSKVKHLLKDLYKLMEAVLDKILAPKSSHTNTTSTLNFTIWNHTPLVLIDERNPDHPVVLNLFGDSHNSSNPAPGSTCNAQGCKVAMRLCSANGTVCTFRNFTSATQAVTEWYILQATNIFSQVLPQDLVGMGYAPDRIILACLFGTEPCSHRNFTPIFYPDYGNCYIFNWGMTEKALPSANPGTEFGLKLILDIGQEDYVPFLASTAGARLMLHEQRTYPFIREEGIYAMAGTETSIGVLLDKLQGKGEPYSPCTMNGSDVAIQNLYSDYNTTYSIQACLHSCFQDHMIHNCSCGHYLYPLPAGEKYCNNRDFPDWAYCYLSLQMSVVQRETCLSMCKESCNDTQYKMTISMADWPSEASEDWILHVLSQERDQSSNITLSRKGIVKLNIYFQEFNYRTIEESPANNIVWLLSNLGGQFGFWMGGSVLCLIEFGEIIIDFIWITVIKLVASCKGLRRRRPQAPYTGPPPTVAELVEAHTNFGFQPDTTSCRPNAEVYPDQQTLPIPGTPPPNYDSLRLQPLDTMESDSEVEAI
T1 sequence (P37091 1-650): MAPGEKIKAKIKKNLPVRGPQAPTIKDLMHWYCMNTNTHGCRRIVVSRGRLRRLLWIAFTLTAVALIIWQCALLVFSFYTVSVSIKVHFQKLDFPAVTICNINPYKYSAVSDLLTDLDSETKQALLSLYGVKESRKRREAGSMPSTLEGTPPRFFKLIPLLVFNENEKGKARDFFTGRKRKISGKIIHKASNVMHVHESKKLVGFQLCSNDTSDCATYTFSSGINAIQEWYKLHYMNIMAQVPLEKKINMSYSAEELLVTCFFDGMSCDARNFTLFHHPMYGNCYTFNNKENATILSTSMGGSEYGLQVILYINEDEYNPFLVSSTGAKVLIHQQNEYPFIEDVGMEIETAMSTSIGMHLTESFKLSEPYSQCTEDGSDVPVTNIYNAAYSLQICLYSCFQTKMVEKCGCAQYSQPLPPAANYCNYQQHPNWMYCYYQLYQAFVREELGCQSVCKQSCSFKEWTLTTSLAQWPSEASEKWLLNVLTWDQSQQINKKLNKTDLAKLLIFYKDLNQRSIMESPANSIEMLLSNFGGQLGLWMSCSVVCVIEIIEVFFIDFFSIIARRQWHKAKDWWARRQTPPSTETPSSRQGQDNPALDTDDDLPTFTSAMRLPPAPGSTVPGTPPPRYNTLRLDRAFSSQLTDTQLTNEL
Nature of the experiment: Co-immunoprecipitation of V5-tagged SPLUNC1 with HA-tagged ENaC subunits in Xenopus oocytes. The conditions noted are these: V5-tagged SPLUNC1, anti-HA immunoprecipitation. The experiment is classed as binding. How it is done:
Xenopus oocytes were injected with either HA-N-Terminus or V5-C-Terminus (HA-NT/V5-CT) tagged subunits in combination with wild type (WT) untagged rat αβγENaC subunits (0.3 ng cRNA each) with or without V5-tagged SPLUNC1 and CAP2 (1 ng cRNA each). After 24 h, 40 eggs per experimental condition were lysed with buffer containing (in mM): 20 Tris, 50 NaCl, 50 NaF, 10 β-glycerophosphate, 5 Na4P2O7 pyrophosphate, 1 EDTA, pH 7.5 and protease inhibitors (complete, Roche), aprotinin (Sigma). Cell lysates were prepared by passing the eggs through a 27G1/2 needle twice and by centrifugation at 3,600 rpm for 10 minutes at 4° C. Supernatants were transferred to new tubes and samples were spun at 14,000 rpm for 20 minutes at 4° C. Supernatants were discarded and pellets were solubilized in (mM) 50 Tris, 100 NaCl, 0.1% Triton X-100, 0.1% NP-40, 20 NaF, 10 Na4P2O7, 10 EDTA+protease inhibitor cocktail (Sigma), pH 7.5. Total inputs were taken from whole cell samples representing 4% of total protein. Solubilized proteins were incubated with 50 μl of protein A and 5 μl of anti-HA antibody (Covance) overnight while tumbling at 4° C. Samples were washed three times with (mM) 150 NaCl 50 Tris pH 7.5 buffer. Laemmli buffer was added and samples were loaded on a 15% gradient Tris-glycine gel after incubation for 10 minutes at 96° C. […]

B1: SPLUNC1: human SPLUNC1 (SEQ ID NO:1), 256 amino acid secreted PLUNC family protein; rSPLUNC1 is the purified V5/6His-tagged recombinant form (protein, listed as Homo sapiens)
chain: MFQTGGLIVFYGLLAQTMAQFGGLPVPLDQTLPLNVNPALPLSPTGLAGSLTNALSNGLLSGGLLGILENLPLLDILKPGGGTSGGLLGGLLGKVTSVIPGLNNIIDIKVTDPQLLELGLVQSPDGHRLYVTIPLGIKLQVNTPLVGASLLRLAVKLDITAEILAVRDKQERIHLVLGDCTHSPGSLQISLLDGLGPLPIQGLLDSLTGILNKVLPELVQGNVCPLVNEVLRGLDITLVHDIVNMLIHGLQFVIKV
modifications: V5/6His tag in recombinant form
notes: rSPLUNC1 is the purified V5/6His-tagged recombinant form
For the molecule B1, the “binding to ENaC subunits (co-immunoprecipitation)” value is reported as “bound to all three ENaC subunits”.
